Measurements from patent US20090010911A1, “METHODS AND COMPOSITIONS FOR AFFECTING CYCLOPHILIN A REGULATION OF KINASES IN MODULATING CELLULAR ACTIVITIES” (IOWA STATE UNIVERSITY RESEARCH FOUNDATION, INC., priority 2007, published 2009).

T1: Itk kinase domain (Mus musculus, UniProt Q03526)
T1 construct: Purified 0.5 μM FLAG-tagged Itk kinase domain (Itk KD) immobilized on an anti-FLAG-resin; made in house; host or cells: Sf9 insect cells (baculovirus)
T1 sequence (Q03526 368-620 limits assumed): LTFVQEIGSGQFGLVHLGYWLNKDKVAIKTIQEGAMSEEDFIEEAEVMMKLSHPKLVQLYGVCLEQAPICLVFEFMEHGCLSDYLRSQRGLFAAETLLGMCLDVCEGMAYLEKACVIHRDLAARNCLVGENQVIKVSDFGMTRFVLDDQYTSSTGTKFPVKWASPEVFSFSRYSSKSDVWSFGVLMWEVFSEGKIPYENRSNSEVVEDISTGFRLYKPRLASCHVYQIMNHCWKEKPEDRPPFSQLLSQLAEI


Biological target: T1, Itk kinase domain
Test: Pull-down assay of SH2 domains with Itk kinase domain
Type: binding
Settings: purified tagged proteins
Protocol: 3(a) Empty anti-FLAG resin (lane 1) or purified FLAG-tagged Itk kinase domain (Itk KD) immobilized on an anti-FLAG-resin (lanes 2 and 3) were incubated with purified myc-tagged control protein (lane 2) or myc-tagged Itk SH2 domain (lanes 1 and 3) in a pull-down assay. […] 3(b) Purified FLAG-tagged Itk KD (lane 1) was incubated with GST (lane 2) or GST-PLCγ1 C-terminal SH2 domain (GST-PLCγ1 SH2C) (lane 3) each immobilized on glutathione beads in a pull-down assay. […] One μM Itk 32 (lanes 1 and 3) or Itk 32 (R265K) (lanes 2 and 4), were incubated with 250 nM FLAG-tagged full-length Itk in an in vitro kinase assay. Lanes 1 and 2 are no enzyme control. […] One, 3, 5 and 10 μM PLCγ1 SH2C-Y783- (d) or PLCγ1 SH2C(R964A,R696A)-Y783- 3(e), were subjected to phosphorylation by 1.2 μM full-length FLAG-tagged Itk. Lanes 5 and 6 (containing 1 and 10 μM substrate, respectively) are no enzyme controls. Coomassie stain of the gels and anti-FLAG blots (bottom panels) show protein levels. (f & g) Interaction between the SH2 domain and Itk kinase domain is independent of the phosphorylation status of the kinase domain. […] Itk KD that is co-expressed with Lck but also pretreated with alkaline phosphatase is not phosphorylated (lane 3). […]

| interaction with Itk kinase domain (pull-down) | Molecule |
| --- | --- |
| interacts directly | Itk SH2 domain: isolated exogenous SH2 domain of Itk, purified from bacteria (protein) EWYNKSISRDKAEKLLLDTGKEGAFMVRDSRTPGTYTVSVFTKAIISENPCIKHYHIKETNDSPKRYYVAEKYVFDSIPLLIQYHQYNGGGLVTRLRYPVCSWRQKA |
| interacts directly | PLCγ1 SH2C domain: isolated carboxy-terminal SH2 domain of PLCγ1 (protein) QTNAHESKEWYHASLTRAQAEHMLMRVPRDGAFLVRKRNEPNSYAISFRAEGKIKHCRVQQEGQTVMLGNSEFDSLVDLISYYEKHPLYRKMKLRYPI |
